From patent US20150184163A1

Target: TSLP Receptor (TSLPR), heterodimer of the IL7 receptor alpha (IL7Rα) chain and the TSLP-specific receptor chain (TSLPR; Crlf2), on mouse DRG sensory neurons (mouse) (UniProt Q8CII9)
Test: cell-based or functional assay

Chain of TSLP Receptor (TSLPR), heterodimer of the IL7 receptor alpha (IL7Rα) chain and the TSLP-specific receptor chain (TSLPR; Crlf2), on mouse DRG sensory neurons (mouse) (Q8CII9 20-359, chain 1 of 2): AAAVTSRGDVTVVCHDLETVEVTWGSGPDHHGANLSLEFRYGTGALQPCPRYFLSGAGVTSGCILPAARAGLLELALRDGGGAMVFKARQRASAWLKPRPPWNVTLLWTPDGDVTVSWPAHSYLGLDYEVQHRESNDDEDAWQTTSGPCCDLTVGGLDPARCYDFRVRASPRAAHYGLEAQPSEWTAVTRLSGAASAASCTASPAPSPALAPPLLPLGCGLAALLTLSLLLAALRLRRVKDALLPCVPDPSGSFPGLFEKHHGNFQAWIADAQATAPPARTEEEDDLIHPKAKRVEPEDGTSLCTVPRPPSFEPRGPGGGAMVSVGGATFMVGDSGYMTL
Chain of TSLP Receptor (TSLPR), heterodimer of the IL7 receptor alpha (IL7Rα) chain and the TSLP-specific receptor chain (TSLPR; Crlf2), on mouse DRG sensory neurons (mouse) (P16872 21-459, chain 2 of 2, further chain): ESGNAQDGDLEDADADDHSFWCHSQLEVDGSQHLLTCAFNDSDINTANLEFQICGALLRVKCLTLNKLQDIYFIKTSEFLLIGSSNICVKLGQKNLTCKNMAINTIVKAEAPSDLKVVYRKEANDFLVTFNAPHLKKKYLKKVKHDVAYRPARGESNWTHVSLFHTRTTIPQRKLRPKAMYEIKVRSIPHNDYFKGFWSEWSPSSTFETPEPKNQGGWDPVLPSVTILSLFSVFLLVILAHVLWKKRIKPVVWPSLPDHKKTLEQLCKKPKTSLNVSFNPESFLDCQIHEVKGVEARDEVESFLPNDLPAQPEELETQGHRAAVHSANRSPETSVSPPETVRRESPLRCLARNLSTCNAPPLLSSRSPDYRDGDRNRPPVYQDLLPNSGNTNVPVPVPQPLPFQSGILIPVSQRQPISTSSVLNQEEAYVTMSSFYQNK

prevalence of DRG neurons with increases in intracellular Ca2+ following TSLP application (ratiometric Ca2+ imaging): 4.1%
Substance: Thymic Stromal Lymphopoietin (TSLP) (ligand)
